In one assay the target is T1, SP140 (Homo sapiens, UniProt Q13342).
T1 construct: 6HisFLAGTEVSP140 (687-867), PHD-Brd
In words: fluorescence polarization competition against GSK064. The format is binding. (Polarisation of emitted light reports the rotation of a fluorescent probe.)

The target of assay [1] is T2, 6His-Flag-Tev-SP140-PHD-Brd (687-867) (human, UniProt Q13342 687-867).
T2 construct: SP140 (Speckled 140 kDa), construct spanning the PHD and Brd domains, aa 687-867; also called SP140 (aa 687-867); source: recombinant protein; not shown: His6, N-terminal, kept; FLAG, N-terminal, kept
T2 sequence (Q13342 687-867): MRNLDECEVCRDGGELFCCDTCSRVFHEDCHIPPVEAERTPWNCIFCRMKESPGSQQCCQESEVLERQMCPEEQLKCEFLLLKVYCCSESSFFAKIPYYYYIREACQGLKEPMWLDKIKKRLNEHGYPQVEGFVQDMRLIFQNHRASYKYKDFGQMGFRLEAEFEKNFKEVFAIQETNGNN
The experiment in a line: fluorescence polarisation; competition: H3 peptides serially diluted, displacing 10 nM GSK306 (FAM-labelled GSK761) from 80 nM 6His…140 (687-867); 50 mM HEPES pH 7.5, 50 mM NaCl, 1 mM CHAPS, 1 mM DTT; 30 min. Particulars: both partners purified.

Assay [2] concerns the target T2, 6His-Flag-Tev-SP140-PHD-Brd (687-867). The experiment in a line: peptide or protein array; Active Motif modified histone peptide array, peptides on the slide; blocked with 3% BSA; 10 mg/mL 6His-Flag-Tev-SP140-PHD-Brd (687-867) in solution; detected with anti-6His antibody and anti-rabbit IgG HRP; in duplicate. Particulars: both partners purified.

Ends that are not written are not given here. Me3 = trimethyl (trimethyl-lysine)

T1 sequence (Q13342 687-867): as above

As a reminder, the IC50 is the concentration that gives 50% inhibition. On SP140, `Cn1c(-c2ccc(C(=O)Nc3cccc(CCOC(C)(C)C)c3)cc2)nc2cc(C(=O)Nc3cccc(CCOC(C)(C)C)c3)ccc21` [GSK761] came in with an IC50 of 0.0778 ± 0.00827 µM.

B1: biotinylated H3 (1-9) (peptide)
peptide: ARTKQTARK
modifications: also: biotin, position not given here
notes: histone H3, residues 1-9; numbers count on: the protein without the initiator methionine; source: bought: Anaspec library
The molecule B1 returned an IC50 in assay [1] of 2.83 µM.

B2: unmodified H3_(1-19) peptide (histone peptide array) (peptide)
peptide: ARTKQTARKSTGGKAPRKQ
notes: histone H3, residues 1-19; numbers count on: the protein without the initiator methionine; Spotted on the array slide; source: bought: Active Motif modified histone peptide array
As for B2, the binding result in assay [2] is given as “binds”.

B3: biotinylated H3(+YCK) (1-18 +YCK) (peptide)
peptide: ARTKQTARKSTGGKAPRKYCK
modifications: also: biotin, position not given here
notes: histone H3, residues 1-18; numbers count on: the protein without the initiator methionine; added residues, printed as '+YCK' after 1-18; also called H3_(1-18); source: bought: Anaspec library
The molecule B3 displayed an IC50 in assay [1] of 0.27 µM. That is a sub-micromolar value.

B4: H3K4(3Me) (1-10) (peptide)
peptide: ARTK(Me3)QTARKS
notes: histone H3, residues 1-10; numbers count on: the protein without the initiator methionine; source: bought: Anaspec library
In assay [1], B4 yielded an IC50 of 12.5 µM.

Source of the values: PMC9392322, “Modulation of macrophage inflammatory function through selective inhibition of the epigenetic reader protein SP140” (BMC Biology, 2022).
